Among the targets are MINK(h) (Homo sapiens, UniProt Q8N4C8); Rsk1(h) (Homo sapiens, UniProt Q15418); IR(h), activated (Homo sapiens, UniProt P06213).
Experiment in all cases: Kinase Profiling Assay
Assay type in all cases: biochemical

The next test has as its target T1, PrKX(h) (Homo sapiens, UniProt P51817).
T1 sequence (P51817 1-358): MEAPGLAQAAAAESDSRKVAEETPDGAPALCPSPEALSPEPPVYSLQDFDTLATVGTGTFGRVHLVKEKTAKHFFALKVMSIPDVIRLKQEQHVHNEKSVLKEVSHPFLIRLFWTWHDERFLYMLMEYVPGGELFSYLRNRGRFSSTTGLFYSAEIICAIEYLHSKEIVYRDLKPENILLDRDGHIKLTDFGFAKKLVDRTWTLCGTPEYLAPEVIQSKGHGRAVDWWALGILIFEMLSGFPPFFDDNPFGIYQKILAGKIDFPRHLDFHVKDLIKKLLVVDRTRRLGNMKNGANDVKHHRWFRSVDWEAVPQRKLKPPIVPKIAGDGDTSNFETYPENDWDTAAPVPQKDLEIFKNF

For the next test, the target named is T2, MST2(h) (Homo sapiens, UniProt Q13188).
T2 sequence (Q13188 1-491): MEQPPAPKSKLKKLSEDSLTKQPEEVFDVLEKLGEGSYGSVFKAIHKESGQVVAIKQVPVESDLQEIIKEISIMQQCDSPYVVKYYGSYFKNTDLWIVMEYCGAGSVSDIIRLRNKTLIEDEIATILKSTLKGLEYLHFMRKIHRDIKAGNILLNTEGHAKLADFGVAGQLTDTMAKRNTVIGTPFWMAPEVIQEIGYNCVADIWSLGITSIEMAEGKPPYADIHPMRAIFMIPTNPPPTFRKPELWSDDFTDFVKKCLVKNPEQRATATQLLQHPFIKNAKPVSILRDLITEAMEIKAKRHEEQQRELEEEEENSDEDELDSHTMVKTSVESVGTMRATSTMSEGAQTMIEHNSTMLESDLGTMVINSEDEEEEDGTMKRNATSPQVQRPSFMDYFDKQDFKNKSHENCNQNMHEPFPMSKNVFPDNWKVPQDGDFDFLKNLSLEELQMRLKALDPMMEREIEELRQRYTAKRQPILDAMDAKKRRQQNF

Another test deals with Ros(h) (Homo sapiens, UniProt P08922). The following applies: 100 μM.
The target of another test is T3, GRK7(h) (Homo sapiens, UniProt Q8WTQ7).
T3 sequence (Q8WTQ7 1-553): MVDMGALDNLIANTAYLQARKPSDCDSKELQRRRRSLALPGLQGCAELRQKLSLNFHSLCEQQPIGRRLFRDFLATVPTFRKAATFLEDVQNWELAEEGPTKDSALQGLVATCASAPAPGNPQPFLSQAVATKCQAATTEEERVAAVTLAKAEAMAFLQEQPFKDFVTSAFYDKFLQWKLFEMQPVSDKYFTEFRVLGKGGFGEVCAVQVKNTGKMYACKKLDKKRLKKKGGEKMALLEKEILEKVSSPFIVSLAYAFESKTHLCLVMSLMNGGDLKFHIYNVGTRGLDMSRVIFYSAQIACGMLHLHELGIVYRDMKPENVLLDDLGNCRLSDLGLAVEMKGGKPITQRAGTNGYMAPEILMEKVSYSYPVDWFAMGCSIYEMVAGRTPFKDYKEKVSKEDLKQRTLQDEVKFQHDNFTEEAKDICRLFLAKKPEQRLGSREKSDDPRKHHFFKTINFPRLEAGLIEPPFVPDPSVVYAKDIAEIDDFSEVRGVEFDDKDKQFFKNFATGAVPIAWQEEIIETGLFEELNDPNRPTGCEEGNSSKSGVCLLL
The settings on record: 100 μM.

The target in a further test is GSK3β(h) (Homo sapiens, UniProt P49841). The settings on record: 100 μM.
The target of a further test is CDK5/p35(h) (Homo sapiens, UniProt Q00535). The settings on record: 100 μM.
Another test has as its target PKCθ(h) (Homo sapiens, UniProt Q04759). The settings on record: 100 μM.
The next test deals with TLK2(h) (Homo sapiens, UniProt Q86UE8). The following applies: 100 μM.
For the next test, the target named is MSK1(h) (Homo sapiens, UniProt O75582). The settings on record: 100 μM.
In a further test the target is AMPKa2(h) (Homo sapiens, UniProt P54646). The settings on record: 100 μM.
The target of a further test is Met(M1268T)(h) (Homo sapiens, UniProt P08581, M1250T). The settings on record: 100 μM.
A further test has as its target T4, NEK11(h) (Homo sapiens, UniProt Q8NG66).
T4 sequence (Q8NG66 1-645): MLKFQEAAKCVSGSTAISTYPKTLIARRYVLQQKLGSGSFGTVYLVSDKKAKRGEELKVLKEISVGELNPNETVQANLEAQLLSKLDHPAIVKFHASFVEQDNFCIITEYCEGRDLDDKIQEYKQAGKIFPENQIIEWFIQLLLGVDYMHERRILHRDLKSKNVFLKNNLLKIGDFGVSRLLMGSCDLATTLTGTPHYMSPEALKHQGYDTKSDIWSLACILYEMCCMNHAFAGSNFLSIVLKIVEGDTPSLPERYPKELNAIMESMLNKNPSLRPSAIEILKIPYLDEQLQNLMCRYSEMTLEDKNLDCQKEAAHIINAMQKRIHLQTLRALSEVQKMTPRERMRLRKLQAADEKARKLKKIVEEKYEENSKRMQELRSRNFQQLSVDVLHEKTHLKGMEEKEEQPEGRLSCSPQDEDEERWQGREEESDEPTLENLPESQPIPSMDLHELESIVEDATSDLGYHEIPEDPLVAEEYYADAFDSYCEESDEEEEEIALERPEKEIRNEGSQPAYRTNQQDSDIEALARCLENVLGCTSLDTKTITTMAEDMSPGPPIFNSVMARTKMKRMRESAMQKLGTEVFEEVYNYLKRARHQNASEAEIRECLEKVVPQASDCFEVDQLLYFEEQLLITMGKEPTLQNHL
The settings on record: 100 μM.

The next test concerns the target Rsk2(h) (Homo sapiens, UniProt P51812). The following applies: 100 μM.

Chain of Ros(h) (P08922 28-2347): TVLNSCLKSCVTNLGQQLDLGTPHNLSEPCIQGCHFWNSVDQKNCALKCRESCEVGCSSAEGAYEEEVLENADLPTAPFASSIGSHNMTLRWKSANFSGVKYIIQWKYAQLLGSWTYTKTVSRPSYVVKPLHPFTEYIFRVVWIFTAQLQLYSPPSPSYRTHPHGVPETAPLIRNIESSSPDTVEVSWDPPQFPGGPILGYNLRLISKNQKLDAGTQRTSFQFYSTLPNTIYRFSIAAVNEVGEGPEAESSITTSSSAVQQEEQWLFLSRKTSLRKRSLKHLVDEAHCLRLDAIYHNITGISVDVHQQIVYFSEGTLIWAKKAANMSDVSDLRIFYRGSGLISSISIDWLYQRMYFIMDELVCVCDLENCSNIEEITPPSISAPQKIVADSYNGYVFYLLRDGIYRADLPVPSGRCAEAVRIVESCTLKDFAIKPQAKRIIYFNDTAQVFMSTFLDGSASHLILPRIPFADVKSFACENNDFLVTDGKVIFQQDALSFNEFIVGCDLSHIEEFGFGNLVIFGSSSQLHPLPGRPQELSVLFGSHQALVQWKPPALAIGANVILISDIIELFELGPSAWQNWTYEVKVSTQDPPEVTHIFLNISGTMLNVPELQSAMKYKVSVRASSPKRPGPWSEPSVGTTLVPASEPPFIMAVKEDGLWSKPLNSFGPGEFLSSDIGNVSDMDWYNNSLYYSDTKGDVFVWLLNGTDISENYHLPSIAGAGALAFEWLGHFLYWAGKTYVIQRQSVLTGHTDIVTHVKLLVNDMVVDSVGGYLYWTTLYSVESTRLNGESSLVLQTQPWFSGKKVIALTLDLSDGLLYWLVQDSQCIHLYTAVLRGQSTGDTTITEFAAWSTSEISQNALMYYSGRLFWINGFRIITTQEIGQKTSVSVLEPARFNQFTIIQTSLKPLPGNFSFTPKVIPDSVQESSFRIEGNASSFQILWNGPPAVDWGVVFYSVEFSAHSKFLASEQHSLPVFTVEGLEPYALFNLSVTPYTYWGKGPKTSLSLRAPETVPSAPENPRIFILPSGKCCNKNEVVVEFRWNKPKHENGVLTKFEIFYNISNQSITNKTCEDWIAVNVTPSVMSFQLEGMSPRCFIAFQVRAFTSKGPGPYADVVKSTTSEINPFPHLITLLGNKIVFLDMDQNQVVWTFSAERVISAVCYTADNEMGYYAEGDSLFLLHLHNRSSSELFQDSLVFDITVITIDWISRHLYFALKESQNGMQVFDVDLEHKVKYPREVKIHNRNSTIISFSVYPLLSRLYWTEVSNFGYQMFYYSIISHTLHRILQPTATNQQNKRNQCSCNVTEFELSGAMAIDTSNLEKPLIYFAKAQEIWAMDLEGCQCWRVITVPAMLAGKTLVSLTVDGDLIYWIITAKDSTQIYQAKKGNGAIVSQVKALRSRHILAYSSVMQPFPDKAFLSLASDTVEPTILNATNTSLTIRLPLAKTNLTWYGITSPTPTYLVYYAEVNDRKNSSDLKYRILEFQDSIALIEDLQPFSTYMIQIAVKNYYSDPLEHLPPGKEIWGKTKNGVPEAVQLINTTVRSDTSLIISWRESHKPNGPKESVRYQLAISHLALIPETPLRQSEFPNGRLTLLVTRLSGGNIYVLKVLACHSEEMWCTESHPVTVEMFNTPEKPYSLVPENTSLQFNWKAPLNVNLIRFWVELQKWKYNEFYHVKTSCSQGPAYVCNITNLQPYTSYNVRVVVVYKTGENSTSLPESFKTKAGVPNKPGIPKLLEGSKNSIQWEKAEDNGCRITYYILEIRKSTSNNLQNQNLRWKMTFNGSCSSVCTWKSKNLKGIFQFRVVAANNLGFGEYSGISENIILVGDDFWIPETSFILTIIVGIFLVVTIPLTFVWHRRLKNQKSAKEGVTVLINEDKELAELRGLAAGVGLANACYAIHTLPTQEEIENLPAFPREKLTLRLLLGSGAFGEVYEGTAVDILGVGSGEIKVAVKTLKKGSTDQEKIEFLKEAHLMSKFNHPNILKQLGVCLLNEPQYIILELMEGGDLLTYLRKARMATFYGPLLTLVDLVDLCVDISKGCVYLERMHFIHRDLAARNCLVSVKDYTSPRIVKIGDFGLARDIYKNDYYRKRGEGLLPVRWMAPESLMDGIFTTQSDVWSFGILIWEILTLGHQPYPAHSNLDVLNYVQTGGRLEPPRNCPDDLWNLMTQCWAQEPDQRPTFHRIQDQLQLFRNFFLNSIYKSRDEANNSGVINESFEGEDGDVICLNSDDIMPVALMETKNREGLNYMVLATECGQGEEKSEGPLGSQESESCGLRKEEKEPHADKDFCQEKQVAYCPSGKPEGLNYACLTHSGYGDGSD
Chain of TLK2(h) (Q86UE8 whole entry): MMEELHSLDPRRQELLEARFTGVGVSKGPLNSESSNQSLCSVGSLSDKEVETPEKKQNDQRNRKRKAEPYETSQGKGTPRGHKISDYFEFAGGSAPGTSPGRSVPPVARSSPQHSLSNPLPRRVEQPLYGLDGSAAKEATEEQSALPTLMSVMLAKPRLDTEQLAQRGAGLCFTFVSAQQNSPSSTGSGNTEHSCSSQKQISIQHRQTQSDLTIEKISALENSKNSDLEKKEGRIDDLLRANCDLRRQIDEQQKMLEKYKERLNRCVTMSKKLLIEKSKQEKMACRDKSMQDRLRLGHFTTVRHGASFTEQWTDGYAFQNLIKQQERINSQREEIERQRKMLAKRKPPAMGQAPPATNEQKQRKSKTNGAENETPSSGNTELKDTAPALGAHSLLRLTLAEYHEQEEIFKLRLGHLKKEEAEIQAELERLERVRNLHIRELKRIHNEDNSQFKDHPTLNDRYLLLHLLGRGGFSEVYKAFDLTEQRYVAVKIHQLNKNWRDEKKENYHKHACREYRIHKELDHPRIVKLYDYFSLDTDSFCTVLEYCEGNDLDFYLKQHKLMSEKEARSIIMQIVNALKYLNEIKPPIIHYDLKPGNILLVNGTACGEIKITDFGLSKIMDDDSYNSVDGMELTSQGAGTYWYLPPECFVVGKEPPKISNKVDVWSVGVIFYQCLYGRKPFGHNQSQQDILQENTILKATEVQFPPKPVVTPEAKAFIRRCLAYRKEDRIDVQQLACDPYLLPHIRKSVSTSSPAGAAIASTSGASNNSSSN
Chain of MINK(h) (Q8N4C8 whole entry): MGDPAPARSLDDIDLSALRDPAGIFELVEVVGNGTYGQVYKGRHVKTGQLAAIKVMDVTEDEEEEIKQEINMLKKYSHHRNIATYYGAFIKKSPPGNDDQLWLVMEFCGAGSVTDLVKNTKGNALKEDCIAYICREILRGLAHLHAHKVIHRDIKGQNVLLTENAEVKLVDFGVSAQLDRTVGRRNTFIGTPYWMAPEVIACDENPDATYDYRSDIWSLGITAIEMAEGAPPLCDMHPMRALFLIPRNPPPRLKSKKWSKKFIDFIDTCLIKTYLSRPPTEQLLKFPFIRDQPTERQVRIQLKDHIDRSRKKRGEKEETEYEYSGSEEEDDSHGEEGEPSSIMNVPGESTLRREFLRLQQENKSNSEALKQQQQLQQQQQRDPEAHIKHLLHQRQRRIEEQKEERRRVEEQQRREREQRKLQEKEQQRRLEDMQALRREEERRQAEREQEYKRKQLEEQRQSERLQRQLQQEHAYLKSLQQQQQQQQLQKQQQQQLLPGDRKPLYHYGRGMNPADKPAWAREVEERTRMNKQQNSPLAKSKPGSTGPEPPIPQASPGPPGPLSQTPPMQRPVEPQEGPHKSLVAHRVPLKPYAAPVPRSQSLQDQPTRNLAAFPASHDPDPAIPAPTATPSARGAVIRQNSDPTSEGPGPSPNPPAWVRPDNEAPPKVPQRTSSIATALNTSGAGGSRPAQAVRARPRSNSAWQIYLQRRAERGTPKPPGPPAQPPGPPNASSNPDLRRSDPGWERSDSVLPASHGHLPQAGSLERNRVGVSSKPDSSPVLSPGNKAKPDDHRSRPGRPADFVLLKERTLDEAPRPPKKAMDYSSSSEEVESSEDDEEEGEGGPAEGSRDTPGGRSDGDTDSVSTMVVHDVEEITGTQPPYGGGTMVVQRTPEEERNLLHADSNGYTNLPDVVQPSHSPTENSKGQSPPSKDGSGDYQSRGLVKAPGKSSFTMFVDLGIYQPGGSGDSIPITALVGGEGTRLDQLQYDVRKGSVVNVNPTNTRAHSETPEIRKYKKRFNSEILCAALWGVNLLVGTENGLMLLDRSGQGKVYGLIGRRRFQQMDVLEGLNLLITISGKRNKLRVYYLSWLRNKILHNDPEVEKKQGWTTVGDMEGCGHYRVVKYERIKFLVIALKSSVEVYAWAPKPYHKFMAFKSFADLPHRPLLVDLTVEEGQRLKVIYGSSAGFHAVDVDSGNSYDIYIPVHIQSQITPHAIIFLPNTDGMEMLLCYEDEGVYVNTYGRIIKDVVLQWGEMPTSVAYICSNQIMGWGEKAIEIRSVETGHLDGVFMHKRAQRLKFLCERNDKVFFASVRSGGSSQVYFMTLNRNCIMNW
Chain of PKCθ(h) (Q04759 whole entry): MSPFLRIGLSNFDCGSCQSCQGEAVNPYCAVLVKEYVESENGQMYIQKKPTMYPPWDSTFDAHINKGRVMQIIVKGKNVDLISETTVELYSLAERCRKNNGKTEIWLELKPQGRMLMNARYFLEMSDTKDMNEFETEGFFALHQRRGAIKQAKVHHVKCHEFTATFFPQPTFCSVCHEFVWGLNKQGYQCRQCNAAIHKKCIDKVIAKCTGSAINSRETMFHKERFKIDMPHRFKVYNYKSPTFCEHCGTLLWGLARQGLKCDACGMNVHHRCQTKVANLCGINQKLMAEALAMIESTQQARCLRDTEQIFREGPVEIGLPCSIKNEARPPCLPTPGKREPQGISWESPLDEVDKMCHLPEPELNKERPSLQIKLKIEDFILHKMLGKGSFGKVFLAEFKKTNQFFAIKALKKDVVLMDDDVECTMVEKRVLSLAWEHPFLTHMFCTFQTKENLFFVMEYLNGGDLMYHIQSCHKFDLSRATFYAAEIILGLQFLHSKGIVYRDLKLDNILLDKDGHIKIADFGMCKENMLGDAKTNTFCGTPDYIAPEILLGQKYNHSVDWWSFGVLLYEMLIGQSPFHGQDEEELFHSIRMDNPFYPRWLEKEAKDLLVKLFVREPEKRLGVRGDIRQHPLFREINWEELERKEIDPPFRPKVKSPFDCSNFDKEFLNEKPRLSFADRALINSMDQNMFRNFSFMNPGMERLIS

Turning to H-YARAAARQARAKALARQLGVAA-OH [MMI-0100], the activity at 100 µM was 96% on MINK(h); 86% at Rsk1(h); 127% on IR(h), activated; 84% on PrKX(h); 98% at MST2(h).

As to “HRRIKAWLKKIKALARQLGVAA (Mammalian) [MMI-0500]”, the “% activity” value is on record as 5% with MINK(h) (100 μM); 150% with Ros(h); 93% with GRK7(h); 238% in the test with GSK3β(h); 59% with CDK5/p35(h); 62% in the test with PKCθ(h). In addition, the “% activity” value with Rsk1(h) (100 μM) worked out at 34%; with TLK2(h), 133%; in the test with IR(h), activated (100 μM), 90%; with PrKX(h) (100 μM) it was 57%; with MSK1(h) it was 8%; with AMPKa2(h) it was 9%. Besides, the “% activity” value came out at 2% in the test with MST2(h) (100 μM), 239% with Met(M1268T)(h), 2% with NEK11(h) and 14% with Rsk2(h).

Regarding “YARAAARQARAKALNRQLGVA (Mammalian) [MMI-0200]”, the “% activity” value came out at 86% with Ros(h); 124% with GRK7(h); 132% with GSK3β(h); 92% with CDK5/p35(h); 101% in the test with PKCθ(h); 129% with TLK2(h). Moreover, the “% activity” value in the test with MSK1(h) is 50%; with AMPKa2(h), 88%; with Met(M1268T)(h) it was 143%; in the test with NEK11(h), 95%; in the test with Rsk2(h), 101%.

The record behind these values is patent publication US10087225B2, “Formulation of MK2 inhibitor peptides” (MOERAE MATRIX, INC., priority 2015, dated 2018).
